Laboratory results taken from the supplement of paper PMC9732359.
± gives the uncertainty stated by the source.

Test: protein stability index of a GFP-peptide fusion (yeast GPS) (PSI 1-4); higher = more stable; sorted into four equal gates, so the index is relative within each strain
Outline: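 Peptides tiling yeast proteins in 17-residue segments were fused downstream of GFP, with Cherry expressed from the same plasmid. As a pooled library in yeast, mid-log cultures grown in leucine-free medium were sorted into four equal gates by GFP/Cherry fluorescence ratio. Gate plasmids were PCR-amplified and Illumina-sequenced, and barcodes linked reads to strains. Each peptide received a protein stability index equal to the sum of each gate's read frequency times its gate number.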

Sequence | protein stability index (doa10∆) | protein stability index (pdr5∆) | protein stability index (ubr1∆) | protein stability index (san1∆)
VLSDQVGSEKVLQDLRL [YJL039C/NUP192] | 3.12 ± 0.2 | – | – | –
SSRTKFWSFLDSLIFKD [YJL039C/NUP192] | 2.78 ± 0.18 | 2.87 ± 0.17 | 2.72 ± 0.12 | –
TFFPRCIIAVSCTLLER [POP1] | 1.31 ± 0.024 | 1.36 ± 0.032 | 1.63 ± 0.03 | 1.5 ± 0.051
QFTSSLFKALKVILNER [RGR1] | 2.03 ± 0.11 | 2.4 ± 0.069 | 2.42 ± 0.077 | 1.83 ± 0.1
MHRPVHFLQFSELAGDE [PRP8] | 3.23 ± 0.081 | 3.15 ± 0.084 | 3.05 ± 0.06 | 2.88 ± 0.059
YKRSIVRNYKPLINRLK [SWI1] | 2.4 ± 0.13 | 2.7 ± 0.1 | 1.98 ± 0.15 | 1.65 ± 0.21
KSKERSSQFVRLASEPG [YMR129W/POM152] | 2.65 ± 0.14 | 2.62 ± 0.13 | 2.8 ± 0.074 | 3.16 ± 0.1
AHTGATPIAGRFTPGSF [RPS0A] | 3.15 ± 0.17 | 2.91 ± 0.08 | 2.81 ± 0.12 | 2.52 ± 0.17
NSNDSVFVGSGKGTGKT [BRR2] | 3.36 ± 0.14 | 3.27 ± 0.16 | 3.33 ± 0.11 | 3.32 ± 0.1
AEQPLPVSPLDIYSDEA [RPS2] | 2.79 ± 0.07 | 2.97 ± 0.064 | 2.92 ± 0.052 | 2.9 ± 0.038
HIVQDCTLTADGAYALS [ASC1] | 2.37 ± 0.057 | 2.69 ± 0.062 | 2.44 ± 0.064 | 2.52 ± 0.12
VLVSMGSSNKAVVQTVK [YJL039C/NUP192] | 1.33 ± 0.26 | 1.5 ± 0.15 | 1.34 ± 0.19 | –
GQLTGIYRYKYKVMHQI [PRP8] | 2.9 ± 0.14 | 2.2 ± 0.13 | 2.42 ± 0.081 | 2.91 ± 0.088
LMCLSSKYCEKSLPLLI [YCS4] | 2.45 ± 0.1 | 2.71 ± 0.076 | 2.39 ± 0.052 | 2.39 ± 0.089
GIVLEKLGIESKQPNSA [RPS23A] | 2.05 ± 0.071 | 2.11 ± 0.072 | 2.38 ± 0.1 | 1.92 ± 0.11
KCFDDIEPHIFDQLIEW [YCG1] | 3.2 ± 0.075 | 3.1 ± 0.081 | 3.3 ± 0.046 | 3.31 ± 0.046
FEHGRTPAEMSRPATTT [FAS2] | 2.72 ± 0.064 | 3.13 ± 0.081 | 2.79 ± 0.1 | 2.41 ± 0.09
FVDDTNVYRVTVHKTFE [PRP8] | 2.68 ± 0.087 | 2.74 ± 0.11 | 2.52 ± 0.068 | 2.21 ± 0.096
EITAKEVYDFTHAVGNN [FAS1] | 3 ± 0.065 | 3.15 ± 0.051 | 3.08 ± 0.039 | 2.92 ± 0.046
NEHSTSYTFRSEKGLLS [FAS1] | 2.6 ± 0.047 | 2.36 ± 0.054 | 2.46 ± 0.033 | 2.7 ± 0.042
VASSTNFTSPTAVVNNA [SWI1] | 2.64 ± 0.094 | 2.56 ± 0.12 | 2.91 ± 0.069 | 2.48 ± 0.14
QNIKAPSVKRQKMAELE [PRP8] | 3.29 ± 0.088 | 3.25 ± 0.07 | 3.29 ± 0.077 | 3.3 ± 0.074
SIEMEEETDDEDKQNIE [RRI2] | 3.25 ± 0.13 | 3.32 ± 0.11 | 3.19 ± 0.061 | 3.39 ± 0.062
EEISFSLSEGCDILVAT [PRP28] | 2.62 ± 0.1 | 2.69 ± 0.06 | 2.96 ± 0.058 | 2.72 ± 0.071
EWNGKSFQKKSNDKVVE [ISW2] | 3.14 ± 0.054 | 3.34 ± 0.058 | 3.08 ± 0.064 | 3.01 ± 0.049
TLRPRQYATVSKTHKTV [RPL34A] | 2 ± 0.16 | 2.12 ± 0.093 | – | –

Sequence | protein stability index (doa10∆) | protein stability index (pdr5∆) | protein stability index (ubr1∆) | protein stability index (san1∆)
GAGSAFGFSSSGTAATG [YOR098C/NUP1] | 3.47 ± 0.2 | 3.41 ± 0.15 | 3.57 ± 0.14 | 3.41 ± 0.17
EEEEDTTTTANINEVKK [NUT1] | 3.24 ± 0.098 | 3.39 ± 0.11 | 3.33 ± 0.15 | 3.09 ± 0.084
GAKQTQGGAMNKKSEQA [SRP72] | 2.77 ± 0.067 | 3.07 ± 0.07 | 3.47 ± 0.054 | 3.26 ± 0.049
MKYAVSKTSENKVSNTV [SIR2] | 2.99 ± 0.13 | 3.16 ± 0.062 | 2.98 ± 0.052 | 3.15 ± 0.091
LNVAEIITSGRDTREVL [ARP9] | 3.35 ± 0.14 | 3.25 ± 0.089 | 3.43 ± 0.081 | 3.44 ± 0.051
LKSQMDTSKALLNVSVN [SKI6] | 3.22 ± 0.13 | 2.92 ± 0.12 | 3.07 ± 0.053 | 3.23 ± 0.13
HLALEIGEVYNDQVEKD [RPN1] | – | – | – | 3.41 ± 0.19
YFLKVTFLKYFGWLLSD [IRR1] | 1.75 ± 0.074 | 1.59 ± 0.054 | 1.8 ± 0.062 | 1.88 ± 0.09
PVRALIVQAKEPNLAAQ [ECM29] | 2.14 ± 0.11 | 2.6 ± 0.08 | 2.64 ± 0.059 | 2.51 ± 0.092
SLQSCSVAVHFQYVIDE [SMC4] | 1.82 ± 0.082 | 1.3 ± 0.039 | 1.54 ± 0.048 | 1.47 ± 0.084
SVLLHHKTMSIVGVLQD [RPT2] | 1.34 ± 0.074 | 1.51 ± 0.053 | 1.57 ± 0.042 | 1.37 ± 0.096
ELRRFESSINTHPHAAD [SKI6] | 2.73 ± 0.081 | 3.08 ± 0.054 | 2.87 ± 0.055 | 2.56 ± 0.064
PVSTASYRLLPQINILQ [RPC40] | 1.61 ± 0.053 | 1.66 ± 0.05 | 1.97 ± 0.051 | 1.63 ± 0.07
FDKIIKIREDHINKIPS [SRB8] | 2.67 ± 0.12 | 2.95 ± 0.066 | 2.81 ± 0.062 | 2.96 ± 0.06
LTPIQKKIMDETPSRLL [ITC1] | 3.33 ± 0.074 | 3.39 ± 0.062 | 3.39 ± 0.039 | 3.16 ± 0.049
TLAITTVTNSKFRSSIL [RPN2] | 2.19 ± 0.046 | 2.3 ± 0.047 | 2.52 ± 0.045 | 2.17 ± 0.054
HNSVKRYQIMLPEQLKS [SNM1] | 1.16 ± 0.042 | 1.59 ± 0.052 | 1.74 ± 0.041 | 1.44 ± 0.1
LHYDKDYNLRIYCYFLI [SSN8] | 1.28 ± 0.046 | 1.37 ± 0.045 | 1.53 ± 0.046 | 1.37 ± 0.078
ELNEEKKRLMDIDDELN [SMC2] | 3.23 ± 0.095 | 3.42 ± 0.14 | 3.51 ± 0.069 | 2.69 ± 0.15
TFAVILFLIIQCYKIYD [YMR129W/POM152] | 1.35 ± 0.057 | 1.22 ± 0.046 | 1.31 ± 0.053 | 1.19 ± 0.094
KKVTAFVPNDGCLNFVD [RPS23A] | 2.88 ± 0.054 | 3.17 ± 0.046 | 2.85 ± 0.035 | 3.11 ± 0.032
ERKLKFSNRFLPVASPF [FAS1] | 3.02 ± 0.12 | 3.16 ± 0.11 | 2.85 ± 0.099 | 2.91 ± 0.094
SYTFRSEKGLLSATQFT [FAS1] | 2.67 ± 0.052 | 2.65 ± 0.046 | 2.78 ± 0.036 | 2.84 ± 0.045
FEDSMQFKKLTHAQRTG [PRP8] | 2.81 ± 0.086 | 3.11 ± 0.083 | 2.99 ± 0.085 | 3.07 ± 0.087
IGIPVNKASLAQYEVLA [QCR2] | 2.52 ± 0.06 | 2.42 ± 0.049 | 2.81 ± 0.043 | 1.92 ± 0.088
